This passage reports cytokine secretion (IFN-γ) and IFN-γ secretion levels results from patent US20250319129A1.

What all share (assay): cell-based or functional assay
Assay [1] concerns the target CLDN18.1 (human) (UniProt P56856).
The target of assay [2] is CLDN18.2 (human), P56856.
Assay [3] concerns the target CLDN18.2 (human), P56856. The source holds these as a separate data set.

Where two headings read alike, the source gives them in different places.

B1: 21011 chimeric antigen receptor (on CAR-T cells) (protein, part only; not given: hinge, transmembrane and signalling parts, part only)
chain, part: EVQLVESGGGLVQPGGSLRLSCAASGSIFSVNGIMWYRQAPGKQRELVAARYTGSVIDSGKTGTGRFTISRDNAKNTLYLQMNSLRAEDTAVYYCNAPTAALTRVEWDVYSLWGQGTLVTVSS
On to B1, for which the cytokine secretion (IFN-γ) in assay [1] was under 100 µg/mL.

B2: 21050 chimeric antigen receptor (on CAR-T cells) (protein, part only; not given: hinge, transmembrane and signalling parts, part only)
chain, part: QVQLQQPGAELVRPGASVKLSCKASGYTFTSYWINWVKQRPGQGLEWIGNIYPSDSYTNYNQKFKDKATLTVDKSSSTAYMQLSSPTSEDSAVYYCTRSWRGNSFDYWGQGTTLTVSSGGGGSGGGGSGGGGSDIVMTQSPSSLTVTAGEKVTMSCKSSQSLLNSGNQKNYLTWYQQKPGQPPKLLIYWASTRESGVPDRFTGSGSGTDFTLTISSVQAEDLAVYYCQNDYSYPFTFGSGTKLEIK
B2 returned a cytokine secretion (IFN-γ) in assay [1] of under 100 µg/mL.

B3: 21009 chimeric antigen receptor (on CAR-T cells) (protein, part only; not given: hinge, transmembrane and signalling parts, part only)
chain, part: EVQVVESGGGLVQPGGSLRLSCAASGNIFRTDIGMWYRQAPGKGRELVAGTTTGRSGYVDKASIGRFTISRDNAKNTMYLQMNSLRAEDTAVYYCNAYGVWEQTPFDALRWGQGTLVTVSS
As to B3, the cytokine secretion (IFN-γ) in assay [1] is under 100 µg/mL.

B4: 21047 chimeric antigen receptor (on CAR-T cells) (protein)
chain: QVQLVESGGGLVQPGGSLRLSCAASGSIFNIPVMGWYRQAPGKQRELVAGISTGGTTNYGDSVKGRFTISRDNAKNTVYLQMNSLKPEDTAVYYCNVLVVSGIGSTLEVWGQGTLVTVSSIEVMYPPPYLDNEKSNGTIIHVKGKHLCPSPLFPGPSKPFWVLVVVGGVLACYSLLVTVAFIIFWVRSKRSRLLHSDYMNMTPRRPGPTRKHYQPYAPPRDFAAYRSRVKFSRSADAPAYQQGQNQLYNELNLGRREEYDVLDKRRGRDPEMGGKPRRKNPQEGLYNELQKDKMAEAYSEIGMKGERRRGKGHDGLYQGLSTATKDTYDALHMQALPPR
With B4, the IFN-γ secretion levels was over 10000 pg/mL in assay [2] and over 5000 pg/mL in assay [3].
